Test results taken from patent publication US20250152746A1, “BASE EDITING OF ANGPTL3 AND METHODS OF USING SAME FOR TREATMENT OF DISEASE” (Verve Therapeutics, Inc., priority 2020, published 2025).
In the oligonucleotide strings, read from the 5' end, every base follows the letter of its sugar. An asterisk marks phosphorothioate; unmarked linkages are phosphodiester. Other units and linkages are bracketed, terminal groups are in braces. A string of capitals states the bases alone. m = 2'-O-methyl; r = 2'-OH (RNA)

Legend:
PCSK9 gene [1] = assay: PCSK9 gRNA/SpCas9 editing in primary human hepatocytes (Tables 2, 4); assay type: cell-based; conditions: SpCas9 mRNA MS002 1:1 by weight; for Human Primary Hepatocyte Editing % 500: 500 ng/RNA/mL; for Human Primary Hepatocyte Editing % 2500: 2500 ng/RNA/mL; for Human Primary Hepatocyte Editing % 100: 100 ng/RNA/mL
Outline: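 Primary human hepatocytes co-transfected with PCSK9 gRNA plus SpCas9 mRNA (1:1 by weight) at 2500, 500 or 100 ng RNA/mL, or 2500–250 ng/mL for tracr-modified guides. Editing at the target site read by amplicon next-generation sequencing of extracted genomic DNA.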

PCSK9 gene [2] = assay: PCSK9 gRNA/SpCas9 editing in primary cynomolgus hepatocytes (Tables 2, 22); assay type: cell-based, cynomolgus monkey; conditions: SpCas9 mRNA MS002 1:1 by weight; for Cyno Primary Hepatocyte Editing % 2500: 2500 ng/RNA/mL; for Cyno Primary Hepatocyte Editing % 100: 100 ng/RNA/mL; for Cyno Primary Hepatocyte Editing % 500: 500 ng/RNA/mL

B1: GA230: PCSK9 gRNA; protospacer AGTAGAGGCAGGCATCGTCC (SEQ ID NO: 224) (nucleic acid)
guide: AGUAGAGGCAGGCAUCGUCCGUUUUAGAGCUAGAAAUAGCAAGUUAAAAUAAGGCUAGUCCGUUAUCAACUUGAAAAAGUGGCACCGAGUCGGUGCUUUU
modifications: sugars from the 5' end m3 r94 m3, linkages s3 o93 s3 (s phosphorothioate, o phosphodiester), T or U not given here
Human Primary Hepatocyte Editing % 500 (PCSK9 gene [1]): 12.83%
Human Primary Hepatocyte Editing % 2500 (PCSK9 gene [1]): 29.31%
Cyno Primary Hepatocyte Editing % 2500 (PCSK9 gene [2]): 35.86%

B2: GA237: PCSK9 gRNA; protospacer CAACGCCGCCTGCCAGCGCC (SEQ ID NO: 230) (nucleic acid)
guide: CAACGCCGCCUGCCAGCGCCGUUUUAGAGCUAGAAAUAGCAAGUUAAAAUAAGGCUAGUCCGUUAUCAACUUGAAAAAGUGGCACCGAGUCGGUGCUUUU
modifications: sugars from the 5' end m3 r94 m3, linkages s3 o93 s3 (s phosphorothioate, o phosphodiester), T or U not given here
Human Primary Hepatocyte Editing % 100 (PCSK9 gene [1]): 4.53%
Human Primary Hepatocyte Editing % 500 (PCSK9 gene [1]): 15.83%
Human Primary Hepatocyte Editing % 2500 (PCSK9 gene [1]): 36.78%
Cyno Primary Hepatocyte Editing % 100 (PCSK9 gene [2]): 2.17%
Cyno Primary Hepatocyte Editing % 500 (PCSK9 gene [2]): 13.46%
Cyno Primary Hepatocyte Editing % 2500 (PCSK9 gene [2]): 46.01%

B3: GA239: PCSK9 gRNA; protospacer CCGCCTGCCAGCGCCTGGCG (SEQ ID NO: 232) (nucleic acid)
guide: CCGCCUGCCAGCGCCUGGCGGUUUUAGAGCUAGAAAUAGCAAGUUAAAAUAAGGCUAGUCCGUUAUCAACUUGAAAAAGUGGCACCGAGUCGGUGCUUUU
modifications: sugars from the 5' end m3 r94 m3, linkages s3 o93 s3 (s phosphorothioate, o phosphodiester), T or U not given here
Human Primary Hepatocyte Editing % 100 (PCSK9 gene [1]): 0.06%
Human Primary Hepatocyte Editing % 500 (PCSK9 gene [1]): 1.73%
Human Primary Hepatocyte Editing % 2500 (PCSK9 gene [1]): 3.49%
Cyno Primary Hepatocyte Editing % 100 (PCSK9 gene [2]): 0.02%
Cyno Primary Hepatocyte Editing % 500 (PCSK9 gene [2]): 0.55%
Cyno Primary Hepatocyte Editing % 2500 (PCSK9 gene [2]): 4.55%

B4: GA240: PCSK9 gRNA; protospacer TGCCAGCGCCTGGCGAGGGC (SEQ ID NO: 233) (nucleic acid)
guide: UGCCAGCGCCUGGCGAGGGCGUUUUAGAGCUAGAAAUAGCAAGUUAAAAUAAGGCUAGUCCGUUAUCAACUUGAAAAAGUGGCACCGAGUCGGUGCUUUU
modifications: sugars from the 5' end m3 r94 m3, linkages s3 o93 s3 (s phosphorothioate, o phosphodiester), T or U not given here
Human Primary Hepatocyte Editing % 100 (PCSK9 gene [1]): 1.05%
Human Primary Hepatocyte Editing % 500 (PCSK9 gene [1]): 0.24%
Human Primary Hepatocyte Editing % 2500 (PCSK9 gene [1]): 7.94%
Cyno Primary Hepatocyte Editing % 100 (PCSK9 gene [2]): 0.52%
Cyno Primary Hepatocyte Editing % 500 (PCSK9 gene [2]): 1.9%
Cyno Primary Hepatocyte Editing % 2500 (PCSK9 gene [2]): 10.62%

B5: GA161: PCSK9 gRNA; protospacer GGACGAGGACGGCGACTACG (SEQ ID NO: 155) (nucleic acid)
guide: mG*mG*mA*rCrGrArGrGrArCrGrGrCrGrArCrUrArCrGrGrUrUrUrUrArGrArGrCrUrArGrArArArUrArGrCrArArGrUrUrArArArArUrArArGrGrCrUrArGrUrCrCrGrUrUrArUrCrArArCrUrUrGrArArArArArGrUrGrGrCrArCrCrGrArGrUrCrGrGrUrGrCrU*mU*mU*mU
Human Primary Hepatocyte Editing % 100 (PCSK9 gene [1]): 3.65%
Human Primary Hepatocyte Editing % 500 (PCSK9 gene [1]): 8.74%
Human Primary Hepatocyte Editing % 2500 (PCSK9 gene [1]): 35.08%
Cyno Primary Hepatocyte Editing % 100 (PCSK9 gene [2]): 4.52%
Cyno Primary Hepatocyte Editing % 500 (PCSK9 gene [2]): 14.98%
Cyno Primary Hepatocyte Editing % 2500 (PCSK9 gene [2]): 48.24%

B6: GA234: PCSK9 gRNA; protospacer CGCCTGCCAGCGCCTGGCGA (SEQ ID NO: 252) (nucleic acid)
guide: mC*mG*mC*rCrUrGrCrCrArGrCrGrCrCrUrGrGrCrGrArGrUrUrUrUrArGrArGrCrUrArGrArArArUrArGrCrArArGrUrUrArArArArUrArArGrGrCrUrArGrUrCrCrGrUrUrArUrCrArArCrUrUrGrArArArArArGrUrGrGrCrArCrCrGrArGrUrCrGrGrUrGrCrU*mU*mU*mU
Human Primary Hepatocyte Editing % 100 (PCSK9 gene [1]): 0.06%
Human Primary Hepatocyte Editing % 500 (PCSK9 gene [1]): 2.29%
Human Primary Hepatocyte Editing % 2500 (PCSK9 gene [1]): 5.45%
Cyno Primary Hepatocyte Editing % 100 (PCSK9 gene [2]): 0.21%
Cyno Primary Hepatocyte Editing % 500 (PCSK9 gene [2]): 1.53%
Cyno Primary Hepatocyte Editing % 2500 (PCSK9 gene [2]): 6.44%

B7: GA229: PCSK9 gRNA; protospacer GTCGTGCTGGTCACCGCTGC (SEQ ID NO: 223) (nucleic acid)
guide: GUCGUGCUGGUCACCGCUGCGUUUUAGAGCUAGAAAUAGCAAGUUAAAAUAAGGCUAGUCCGUUAUCAACUUGAAAAAGUGGCACCGAGUCGGUGCUUUU
modifications: sugars from the 5' end m3 r94 m3, linkages s3 o93 s3 (s phosphorothioate, o phosphodiester), T or U not given here
Human Primary Hepatocyte Editing % 100 (PCSK9 gene [1]): 0.47%
Human Primary Hepatocyte Editing % 500 (PCSK9 gene [1]): 6.85%
Human Primary Hepatocyte Editing % 2500 (PCSK9 gene [1]): 30.41%
Cyno Primary Hepatocyte Editing % 100 (PCSK9 gene [2]): 0.75%
Cyno Primary Hepatocyte Editing % 500 (PCSK9 gene [2]): 5.39%
Cyno Primary Hepatocyte Editing % 2500 (PCSK9 gene [2]): 34.28%

B8: GA236: PCSK9 gRNA; protospacer AGCCCTCGCCAGGCGCTGGC (SEQ ID NO: 229) (nucleic acid)
guide: AGCCCUCGCCAGGCGCUGGCGUUUUAGAGCUAGAAAUAGCAAGUUAAAAUAAGGCUAGUCCGUUAUCAACUUGAAAAAGUGGCACCGAGUCGGUGCUUUU
modifications: sugars from the 5' end m3 r94 m3, linkages s3 o93 s3 (s phosphorothioate, o phosphodiester), T or U not given here
Human Primary Hepatocyte Editing % 100 (PCSK9 gene [1]): 6.92%
Human Primary Hepatocyte Editing % 500 (PCSK9 gene [1]): 3.13%
Human Primary Hepatocyte Editing % 2500 (PCSK9 gene [1]): 22.41%
Cyno Primary Hepatocyte Editing % 100 (PCSK9 gene [2]): 2.31%
Cyno Primary Hepatocyte Editing % 500 (PCSK9 gene [2]): 11.62%
Cyno Primary Hepatocyte Editing % 2500 (PCSK9 gene [2]): 37.44%

B9: GA241: PCSK9 gRNA; protospacer TGCTGCTGCCCCTGGCGGGT (SEQ ID NO: 234) (nucleic acid)
guide: UGCUGCUGCCCCUGGCGGGUGUUUUAGAGCUAGAAAUAGCAAGUUAAAAUAAGGCUAGUCCGUUAUCAACUUGAAAAAGUGGCACCGAGUCGGUGCUUUU
modifications: sugars from the 5' end m3 r94 m3, linkages s3 o93 s3 (s phosphorothioate, o phosphodiester), T or U not given here
Human Primary Hepatocyte Editing % 100 (PCSK9 gene [1]): 0.61%
Human Primary Hepatocyte Editing % 500 (PCSK9 gene [1]): 1.49%
Human Primary Hepatocyte Editing % 2500 (PCSK9 gene [1]): 5.39%
Cyno Primary Hepatocyte Editing % 100 (PCSK9 gene [2]): 0.97%
Cyno Primary Hepatocyte Editing % 500 (PCSK9 gene [2]): 2.94%
Cyno Primary Hepatocyte Editing % 2500 (PCSK9 gene [2]): 16.11%

B10: GA228: PCSK9 gRNA; protospacer CGGCTGTACCCACCCGCCAG (SEQ ID NO: 222) (nucleic acid)
guide: CGGCUGUACCCACCCGCCAGGUUUUAGAGCUAGAAAUAGCAAGUUAAAAUAAGGCUAGUCCGUUAUCAACUUGAAAAAGUGGCACCGAGUCGGUGCUUUU
modifications: sugars from the 5' end m3 r94 m3, linkages s3 o93 s3 (s phosphorothioate, o phosphodiester), T or U not given here
Human Primary Hepatocyte Editing % 100 (PCSK9 gene [1]): 5.9%
Human Primary Hepatocyte Editing % 500 (PCSK9 gene [1]): 10.96%
Human Primary Hepatocyte Editing % 2500 (PCSK9 gene [1]): 37.1%
Cyno Primary Hepatocyte Editing % 100 (PCSK9 gene [2]): 1.95%
Cyno Primary Hepatocyte Editing % 500 (PCSK9 gene [2]): 7.89%
Cyno Primary Hepatocyte Editing % 2500 (PCSK9 gene [2]): 31.36%

B11: GA233: PCSK9 gRNA; protospacer GCGGCTGTACCCACCCGCCA (SEQ ID NO: 227) (nucleic acid)
guide: GCGGCUGUACCCACCCGCCAGUUUUAGAGCUAGAAAUAGCAAGUUAAAAUAAGGCUAGUCCGUUAUCAACUUGAAAAAGUGGCACCGAGUCGGUGCUUUU
modifications: sugars from the 5' end m3 r94 m3, linkages s3 o93 s3 (s phosphorothioate, o phosphodiester), T or U not given here
Human Primary Hepatocyte Editing % 100 (PCSK9 gene [1]): 3.08%
Human Primary Hepatocyte Editing % 500 (PCSK9 gene [1]): 5.39%
Human Primary Hepatocyte Editing % 2500 (PCSK9 gene [1]): 19.97%
Cyno Primary Hepatocyte Editing % 100 (PCSK9 gene [2]): 2.38%
Cyno Primary Hepatocyte Editing % 500 (PCSK9 gene [2]): 10.84%
Cyno Primary Hepatocyte Editing % 2500 (PCSK9 gene [2]): 37.8%
